Results: US20260001961A1 (ALLIGATOR BIOSCIENCE, published 2026)
Positions count from the first letter of the chain named. Names and notes keep the numbering of the source.

B1: AC_05293 (bispecific antibody)
heavy: not shown
light: DIQMTQSPSSLSASVGDRVTITCRASQSISSYLNWYQEKPGKAPKLLIYAASSLQSGVPSRFSGSGSGTDFTLTISSLQPEDFATYYCQQYGRNPPTFGQGTKLEIKRTVAAPSVFIFPPSDEQLKSGTASVVCYLNNFYPREAKVQWKVDNALQSGNSQESVTEQDSKDSTYSLWSTLTLSKADYEKHKVYACEVTHQGLSSPVTKSFNRGEC
chain: EVQLLEQSGAELVRPGTSVKISCKASGYAFTNYWLGWVKERPGHGLEWIGDIFPGSGNIHYNEKFKGKATLTADKSSSTAYMQLSSLTFEDSAVYFCARLRNWDEPMDYWGQGTTVTVSSASTKGPSVFPLAPSSKSTSGGTAALGCLVKDYFPEPVTVSWNSGALTSGVHTFPAVLQSSGLYSLSSVVEVPSSSLGTQTYICNVNHKPSNTKVDKKVEPKSC
notes: Chain H1 (role heavy) = IgG heavy chain-linker-Fab light chain; chain L1 (role light) = IgG light chain; chain H2 (role chain) = Fab heavy chain VH-CH1; also called wt bsAb (AC_05293); wild-type bsAb
B2: 4109 (bispecific antibody)
heavy 1: not shown
heavy 2: B1 chain
light: B1 light
notes: CD40 x EpCAM; also called single mutant I126A of AC_05293; copies: 2 + 2 + 2
B3: 4110 (bispecific antibody)
heavy 1: not shown
heavy 2: B1 chain
light: B1 light
notes: also called single mutant I126G of AC_05293; copies: 2 + 2 + 2
B4: AM_4110-4133 (bispecific antibody)
heavy 1: not shown
light: B1 light
heavy 2: B1 chain with S186T
notes: AC_05293 backbone; also called double mutant I126G + S183T; copies: 2 + 2 + 2
B5: AM_4120-4134 (bispecific antibody)
heavy 1: not shown
light: B1 light
heavy 2: B1 chain with V191G
notes: AC_05293 backbone; also called double mutant A111V + V188G; copies: 2 + 2 + 2
B6: AM_4109-4131 (bispecific antibody)
heavy 1: not shown
light: B1 light
heavy 2: B1 chain with Y183W
notes: AC_05293 backbone; also called double mutant I126A + Y180W; copies: 2 + 2 + 2
B7: AM_4110-4134 (bispecific antibody)
heavy 1: not shown
light: B1 light
heavy 2: B1 chain with V191G
notes: AC_05293 backbone; also called double mutant I126G + V188G; copies: 2 + 2 + 2
B8: AM_4109-4133 (bispecific antibody)
heavy 1: not shown
light: B1 light
heavy 2: B1 chain with S186T
notes: AC_05293 backbone; also called double mutant I126A + S183T; copies: 2 + 2 + 2
B9: AM_4110-4126 (bispecific antibody)
heavy 1: not shown
light: B1 light
heavy 2: B1 chain with Y183I
notes: AC_05293 backbone; also called double mutant I126G + Y180I; copies: 2 + 2 + 2
B10: AM_4120-4133 (bispecific antibody)
heavy 1: not shown
light: B1 light
heavy 2: B1 chain with S186T
notes: AC_05293 backbone; also called double mutant A111V + S183T; copies: 2 + 2 + 2
B11: AM_4120-4131 (bispecific antibody)
heavy 1: not shown
light: B1 light
heavy 2: B1 chain with Y183W
notes: AC_05293 backbone; also called double mutant A111V + Y180W; copies: 2 + 2 + 2
B12: AM_4117-4134 (bispecific antibody)
heavy 1: not shown
light: B1 light
heavy 2: B1 chain with V191G
notes: AC_05293 backbone; also called double mutant T109P + V188G; copies: 2 + 2 + 2
B13: AM_4115-4134 (bispecific antibody)
heavy 1: not shown
light: B1 light
heavy 2: B1 chain with V191G
notes: AC_05293 backbone; also called double mutant I126S + V188G; copies: 2 + 2 + 2
B14: AM_4120-4126 (bispecific antibody)
heavy 1: not shown
light: B1 light
heavy 2: B1 chain with Y183I
notes: AC_05293 backbone; also called double mutant A111V + Y180I; copies: 2 + 2 + 2
B15: AM_4109-4134 (bispecific antibody)
heavy 1: not shown
light: B1 light
heavy 2: B1 chain with V191G
notes: AC_05293 backbone; also called double mutant I126A + V188G; copies: 2 + 2 + 2
B16: AM_4110-4131 (bispecific antibody)
heavy 1: not shown
light: B1 light
heavy 2: B1 chain with Y183W
notes: AC_05293 backbone; also called double mutant I126G + Y180W; copies: 2 + 2 + 2
B17: AM_4115-4133 (bispecific antibody)
heavy 1: not shown
light: B1 light
heavy 2: B1 chain with S186T
notes: AC_05293 backbone; also called double mutant I126S + S183T; copies: 2 + 2 + 2
B18: AM_4117-4131 (bispecific antibody)
heavy 1: not shown
light: B1 light
heavy 2: B1 chain with Y183W
notes: AC_05293 backbone; also called double mutant T109P + Y180W; copies: 2 + 2 + 2
B19: AM_4117-4126 (bispecific antibody)
heavy 1: not shown
light: B1 light
heavy 2: B1 chain with Y183I
notes: AC_05293 backbone; also called double mutant T109P + Y180I; copies: 2 + 2 + 2
B20: AM_4109-4126 (bispecific antibody)
heavy 1: not shown
light: B1 light
heavy 2: B1 chain with Y183I
notes: AC_05293 backbone; also called double mutant I126A + Y180I; copies: 2 + 2 + 2
B21: AM_4117-4133 (bispecific antibody)
heavy 1: not shown
light: B1 light
heavy 2: B1 chain with S186T
notes: AC_05293 backbone; also called double mutant T109P + S183T; copies: 2 + 2 + 2

Biological target: T1, CD40 (UniProt P25942 21-193)
T1 construct: also called biotinylated CD40; CD40 antigen
T1 sequence (P25942 21-193 limits assumed): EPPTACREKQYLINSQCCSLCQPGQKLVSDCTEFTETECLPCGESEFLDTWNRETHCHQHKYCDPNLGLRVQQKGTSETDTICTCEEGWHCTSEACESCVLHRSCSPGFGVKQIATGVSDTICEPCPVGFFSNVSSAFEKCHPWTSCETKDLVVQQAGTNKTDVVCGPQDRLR
Experiment: dual ELISA: CD40 coated, bsAb titrated, biotinylated EpCAM + streptavidin-HRP; signal needs both targets
Procedure: (§1) Dual ELISA Plates were coated with 0.5 μg/mL CD40 in PBS over night at 4° C. After washing in PBS/0.05% Tween 20 (PBST), the plates were blocked with PBS/2% BSA for at least 30 minutes at room temperature before being washed again. Samples serially diluted in PBS/0.5% BSA were then added and allowed to bind for at least 1 hour at room temperature. […] Dual complexed bsAb with CD40 and EpCAM were detected with HRP-labelled streptavidin. SuperSignal Pico Luminescent was used as substrate and luminescence signals were measured using Fluostar Optima.

Binder	EC50 (read off the curve) [µg/mL]
B1	~0.1
B2	~0.1
B3	~0.1

Biological target: T2, EpCAM (UniProt P16422 24-265)
T2 construct: also called biotinylated EpCAM
T2 sequence (looked up): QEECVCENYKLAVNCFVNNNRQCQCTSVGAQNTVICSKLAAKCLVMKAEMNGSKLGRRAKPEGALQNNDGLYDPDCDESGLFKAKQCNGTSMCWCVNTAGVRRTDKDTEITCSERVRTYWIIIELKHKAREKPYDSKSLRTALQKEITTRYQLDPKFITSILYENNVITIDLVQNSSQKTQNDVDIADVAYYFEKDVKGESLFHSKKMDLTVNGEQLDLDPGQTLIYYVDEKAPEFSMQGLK
Experiment: Octet BLI; biotinylated EpCAM on streptavidin sensor;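 further: octet RED96 kinetics: 300 s association, then 300 s dissociation in 1x Kinetic buffer, buffer-blank referenced, Savitzky-Golay smoothed, fitted to a 1:1 Langmuir binding model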
Procedure: (§2) Kinetic measurements were performed using the Octet RED96 platform (ForteBIo). […] Association was followed for 300 seconds followed by dissociation in 1x Kinetic buffer for 300 seconds. Sensor tips were regenerated using 10 mM glycine, pH 1.7. Data generated were referenced by subtracting a parallel buffer blank, the baseline was aligned with the γ-axis, inter-step correlation by alignment against dissociation was performed and the data were smoothed by a Savitzky-Golay filter in the data analysis software (v.9.0.0.14). The processed data were fitted using a 1:1 Langmuir binding model with X2 as a measurement of fitting accuracy.
(§3) Binding affinities of all the variants were determined using Octet (Pall ForteBio).

Binder	Kd [nM]	koff [s⁻¹]	kon [M⁻¹ s⁻¹]
B1	4.8	0.0012	230000
B4	4.9	0.00096	190000
B5	5.8	0.0014	250000
B6	4.4	0.00081	180000
B7	5.3	0.0011	200000
B8	4.6	0.00092	200000
B9	5.1	0.0009	170000
B10	5.7	0.0014	240000
B11	5.3	0.0015	280000
B12	5.2	0.0012	230000
B13	6.9	0.0013	190000
B14	5.6	0.0013	230000
B15	4.7	0.00098	210000
B16	4.7	0.00095	200000
B17	7	0.0013	180000
B18	4.5	0.0012	260000
B19	4.6	0.001	220000
B20	4.3	0.00077	180000
B21	4.6	0.0012	260000

Biological target: T1, CD40
Experiment: dual ELISA: CD40 coated, bsAb titrated, biotinylated EpCAM + streptavidin-HRP; signal needs both targets
Remark: another data set of the same source
Procedure: as §1

Binder	EC50 (read off the curve) [nM]
B1	~0.9
B6	~0.9
B8	~0.9
B15	~0.9
B20	~0.9

Biological target: T1, CD40
Experiment: Octet BLI; biotinylated CD40 on streptavidin sensor;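 further: octet RED96 biolayer interferometry, 300 s association then 300 s dissociation in kinetic buffer, buffer-blank referenced, fitted with a 1:1 Langmuir binding model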
Procedure: as §2, §3

Binder	Kd [nM]	koff [s⁻¹]	kon [M⁻¹ s⁻¹]
B1	0.93	0.001	1.1e+06
B4	1.1	0.00075	680000
B5	0.91	0.0011	1.2e+06
B6	0.89	0.00072	800000
B7	0.88	0.00075	860000
B8	0.73	0.001	1.4e+06
B9	1.5	0.00051	350000
B10	0.9	0.0011	1.2e+06
B11	1.1	0.00097	920000
B12	0.97	0.00072	740000
B13	1.1	0.001	930000
B14	0.86	0.001	1.2e+06
B15	0.83	0.00092	1.1e+06
B16	1.2	0.00056	450000
B17	1	0.0011	1.1e+06
B18	1	0.00066	630000
B19	1.2	0.00048	400000
B20	1.2	0.0006	480000
B21	0.93	0.0007	750000
